According to paper PMC4462998:

Target: FtsQ (Escherichia coli), P06136
Assay: not stated; unpublished results (Luirink and den Blaauwen); method not given
Conditions: remark: other sources report otherwise

Sequence of FtsQ (Escherichia coli), P06136 (P06136 whole entry): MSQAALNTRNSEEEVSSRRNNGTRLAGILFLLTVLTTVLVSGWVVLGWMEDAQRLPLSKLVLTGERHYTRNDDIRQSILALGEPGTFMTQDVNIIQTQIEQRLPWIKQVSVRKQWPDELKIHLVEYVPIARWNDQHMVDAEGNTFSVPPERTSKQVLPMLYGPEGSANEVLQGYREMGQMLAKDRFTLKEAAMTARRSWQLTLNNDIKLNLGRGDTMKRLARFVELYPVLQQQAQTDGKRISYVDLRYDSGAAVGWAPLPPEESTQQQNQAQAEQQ

stoichiometry N: 1
B1: FtsL, P0AEN4 1-121 (natural protein)
chain: MISRVTEALSKVKGSMGSHERHALPGVIGDDLLRFGKLPLCLFICIILTAVTVVTTAHHTRLLTAQREQLVLERDALDIEWRNLILEENALGDHSRVERIATEKLQMQHVDPSQENIVVQK
